The data set is described as follows: soluble on expression in E. coli; label from the status in PepcDB or PDB records.
As for “MHTDINALFAALWQDYIQMTPSAAKVHELLGHGKPIINDHIALRTFNIAKVNLAVLAEHFTSLGYVACGDYKFEQKKLIAKHFEHPDATQPKVFISELLVEEFSSALQSTIQGLIAQVDEQATKADNFIYSGRHWTLDSKTYEALLEESEYAAWVAAFGYRANHFTVSINHLEGFDTLESVNDALKQAGFVLNTSGGEIKGSPEVLLEQSSTMADKIAVEFSDATVEIPSCFYEFALRYPKANGELYTGFVAASADKIFESTNAKKAAAALEHHHHHH”, the “soluble on expression in E. coli” value is “not soluble”.
The result for “MHTRAEKLEAFGRLLDVLDTLREQCPWDRKQTNESLRTNTIEEVYELSEALLGECPDDIRKELGDVLLHVAFYAKIGEEKGQFDIASVCHALCDKLIYRHPHIYGNVQVENAAEVVRNWEQLKLREKDGNKSVLSGVPKSLPALVKSYRMQEKAAGVGFDWEQREQVWPKVEEELNEVRGAIVSEDPDAMEAEFGDLLFAVVNAARLYGINPDNALERTNRKFDSRFSYVEQRAKQQGKALRDMTLSEMDALWNEAKQKGL” reads “not soluble”; that for “MHTVAVSGPPETGFRSVVCARRWLANPYAPGRPTVRCMNVDDHAEELASDLGVDKAEVKENLQNLVEYSVPLEEAKRSLRRKYGDDDGAPSGGPTAVDIADVDTDSGNVTVTATVLTAGKRSIRYQGDDHVIGEGELADETGRISYTAWEEFGLEPGDTVTIGNASVREWEGSPELNFGESATVTSADGDIEMAAEVGGDRDLAALSAGDRGRNVEAVVTEVEERTIDGRDGETEILSGVLGDETARLPFTDWDPHGEIEAGASVRIEDVYVREFRGVPSVNVSEFSTVERLDHEVEVGGPTRMAIRDAVARGGAYDVELVGSVIDIRDGSGLIKRCPDCGRVVQTGQCRQHGAVEAEDDLRVKAVLDDGTDSVTAILDRELTADVYGGTLADAREQAREAMDHSVVADTIAEDVVGREFRVRGHLSVDEYGANLETIAFAERDDDPAARAAAFLAEVDALEHHHHHH”, “not soluble”.
Consider “MHVDPIVEALIIRRKEHGLSREQMANIAGMSVKTYQRIERGESDLKLSQYRSILRSLNLTDLDIALDIRGIEHVTAEDLVTVARLLSPEAQSLLVRLLSLVLEQRSDPNAS”, for which the “soluble on expression in E. coli” value was “not soluble”.
In the case of “MHVGIVAQRGNERATSLAGEIREQLRALEVTVWVDTATAEALACAGECGRDTTAFTDCDLVVSIGGDGTFLFAARGAGATPILGVNLGEVGFLNAVAPADAVEAVREEVNRYRETGAVRCREVPRVVAAGDGWASTPALNEVAIQGEQRGHGHGVAVDVRVDGSQYEATRADGVLVATPTGSTAYNLSEGGPLVQPSVDALVVTEMCGADALPPLVTGLDSEIRIRVETLDDGGEGRVVVASDGGRLTRVDPPVEMTVTAADEPARVAGPAADFFEALSKLELEHHHHHH”, the “soluble on expression in E. coli” value is reported as “not soluble”.
In the case of “MHYQPKQDLLQNRIILVTGASDGIGREAALTYARYGATVILLGRNEEKLRRVAQHIADEQHVQPQWFTLDLLTCTAEECRQVADRIAAHYPRLDGVLHNAGLLGEIGPMSEQDPQIWQDVMQVNVNATFMLTQALLPLLLKSDAGSLVFTSSSVGRQGRANWGAYATSKFATEGMMQVLADEYQNRSLRVNCINPGGTRTSMRASAFPTEDPQKLKTPADIMPLYLWLMGDDSRRKTGMTFDAQPGRKPGIAQ”, the “soluble on expression in E. coli” value is “not soluble”.
For “MHYSSGNYEAFVRPRKSESADKKTAWLVGSGLAGLAGAAFLIRDGGVAGERITILEELDVPGGALDGLDVPEKGFVIRGGREMEEHFECLWDLYRSIPSLEVEDASVLDEFYRLNKDDPNFSLQRATQNQGQDAPDKALLTLNDRAQKDLLSVFLATREEMENKRINEVFSEDFLKSNFWLYWRTMFAFEEWHSALEMKLYLHRFIHHIGNLADFSSLKFNRYNQYESMVLPLVKWLQDHGVRFRYGIEVTDVDFDIHAEGKQATRIHWTEKGVEGGVDLGPDDLVLITIGSLTENSDNGDHHTPAKLREGPAPAWDLWRRIAAKDPAFGRPDVFGAHVTETKWASATITALDQRIPQYVEKIAKRNPFTGKIVTGGIVTVKDSSWLMSWAVHRQPHFKKQPKDQMIAWLYALFVDRPGDYVKKPMLDCTGEEITQEWLYHLGVPVEDIPELAAAGANTVPVMMPYITAFFMPRQAGDRPDVVPEGAVNFAFIGQFAESKQRDCIFTTEYSVRTPMEAVYTLMNVERGVPEVFNSTYDIRTLLAAIGPLRDGKGIDLPGPSFLHKLLMKKLEGTEIAELLKEFHLISELEHHHHHH”, the “soluble on expression in E. coli” value was “not soluble”.
As for “MIACICAITVMAQVQTHDVKGVVFDRRQQPIVGALVTAKGTNISTITDVDGKFLLQEVPLSVKKVVVTSIGMETREVDLNVPVQLTGKRKKVSFVAHAGLSMSKYTIYGSDFKVGYEFGLGIEVRMSKRWAFQPTLQICNHGAEFNAERYGVKYQETWNPVSLDLPMLFILRCPIARKMNLAFSMGPVFSYGFAGKVKASETGKPDEEYDIYSSEYEYDYSGGKHSLLHPFSFGVAYGIGVEYKKWLAGISGKSMCLGQDDEGFEAKEHNLVLTLGVIYRF”, the “soluble on expression in E. coli” value is reported as “not soluble”.
With “MIASKMPREVRLPSFQIEIIGAMSTYKIYCQSLLPLSHSALLIMVAPSFPLLNLPEKSLKEVFCNMSVVQQTCISMISEKTKNLVRKFHIFKQVQIWLDFSDSLRCYMSLKGISLSIWHTPMWH”, the “soluble on expression in E. coli” value was “not soluble”.
Consider “MIDENLIKINLICESQDEVFHYLATLVVDNGYANNTESVVQALKLRESEGTTGMMEGFAIPHAKDKSIVKPSIAILKLKTGVEWHSMDGQLINNVIALFIPEKEAGTTHLKVLSQIARLLVNKTFKEKIKEADTILELKELLTEKLDLTS”, for which the “soluble on expression in E. coli” value is listed as “not soluble”.
Consider “MIDLENQEREIINLMFSQRISWLAAVRIRHKLSLAEVSKMLGISINSLKQIEKTERLSSNIKSKMAEIYGCPPELLICPSWMTAEHK”, for which the “soluble on expression in E. coli” value was “not soluble”.
With “MIDLSKTVFYTSIDIGSRYIKGLVLGKRDQEWEALAFSSVKSRGLDEGEIKDAIAFKESVNTLLKELEEQLQKSLRSDFVISFSSVSFEREDTVIERDFGEEKRSITLDILSEMQSEALEKLKENGKTPLHIFSKRYLLDDERIVFNPLDMKASKIAIEYTSIVVPLKVYEMFYNFLQDTVKSPFQLKSSLVSTAEGVLTTPEKDRGVVVVNLGYNFTGLIAYKNGVPIKISYVPVGMKHVIKDVSAVLDTSFEESERLIITHGNAVYNDLKEEEIQYRGLDGNTIKTTTAKKLSVIIHARLREIMSKSKKFFREVEAKIVEEGEIGIPGGVVLTGGGAKIPRINELATEVFKSPVRTGCYANSDRPSIINADEVANDPSFAAAFGNVFAVSENPYEETPVKSENPLKKIFRLFKELME”, the “soluble on expression in E. coli” value is reported as “soluble”.
The same measure for “MIDTTVFQNKTAVYYTLGCKLNFSETSTIGKILREAGVRTARKGEKADICVVNTCSVTEMADKKCRQAIHRLVKQHPGAFVVVTGCYAQLKPGDVAKIKGVDVVLGAEQKGDLLQYLGDLHKHEEGEAFTTTTKDIRSFSPSCSRGDRTRFFLKVQDGCDYFCSYCTIPFARGRSRNGTVASMVEQARQAAAEGGKEIVLTGVNIGDFGKTTGETFFDLVKALDQVEGIERYRISSIEPNLLTDEIIEFVSRSRRFMPHFHIPLQSGCDEVLKLMRRRYDTALFASKVKKIKEVMPDAFIGVDVIVGTRGETEEYFEQAYQFISGLDVTQLHVFSYSERPGTQALKIDYVVSPEEKHQRSQRLLTLSDEKTRAFYTRHIGQTMQVLMEKSKAGTPMHGFTANYIRVEVENDESLDNQMINVRLGEFNEDMTALKGTILMNYEVLEHHHHHH”: “soluble”.
In the case of “MIDVFDGQVTTRIALQLLALLAQRPGELRHAKWSEFDEADKVWAIPAGKMKMRRDHFVPLADQAITLLNELRPLTGESEYLFPSLRSWHRPMSENTMNAALRRMGYSGDEMTAHGFRATFSTLANESGLWNPDAIERALAHEERNELEHHHHHH”, the “soluble on expression in E. coli” value is given as “not soluble”.
The result for “MIDVMQIQEILPHRYPFLLVDKITELKVKEVVLGYKNISISDHVFMGHFPGHPIYPGVLILEGMAQTGGVLAFESMEDKVDPKSKVVYFTGIDGAKFRNPVRPGDRLDYEMSVVKNRGNMWIFKGQAFVDGNLVAEAELKAMIVDK” reads “soluble”; that for “MIEIESLSRKWKNFSLDNLSLKVESGEYFVILGPTGAGKTLFLELIAGFHVPDSGRILLDGKDVTDLSPEKHDIAFVYQNYSLFPHMNVKKNLEFGMRMKKIKDPKRVLDTARDLKIEHLLDRNPLTLSGGEQQRVALARALVTNPKILLLDEPLSALDPRTQENAREMLSVLHKKNKLTVLHITHDQTEARIMADRIAVVMDGKLIQVGKPEEIFEKPVEGRVASFVGFENVLKGRVISAEQGLLRIRVGEVVIDAAGDMEVGDQVYAFLRPENIALSKSSTQSSIRNSLQGRVTEAWVLGALVRVKVDCGVPLNVLITRRSAEEMELSPGVQIYARFKASSVHVLR”, “soluble”.
For the sequence “MIELVIVSRLLEYPDAALWQHQQEMFEAIAASKNLPKEDAHALGIFLRDLTTMDPLDAQAQYSELFDRGRATSLLLFEHVHGESRDRGQAMVDLLAQYEQHGLQLNSRELPDHLPLYLEYLAQLPQSEAVEGLKDIAPILALLSARLQQRESRYAVLFDLLLKLANTAIDSDKVAEKIADEARDDTPQALDAVWEEEQVKFFADKGCGDSAITAHQRRFAGAVAPQYLNITTGGQH”, the “soluble on expression in E. coli” value is reported as “not soluble”.
Consider “MIEQIGADSKSAENKQERKLYIETYGCQMNVADSEVVASVMQMDGYNLTDNVDEADTILVNTCSVRDNAEQKVLNRLAYYHSLRKKRRASSRLVIGVLGCMAERVKEELIREHHVDVVAGPDSYLDLPNLVGAAEQGEKAINVELSTQETYKDVMPLKMGGVHINGFVSIMRGCNNFCSYCIVPYTRGRERSREIESILNEVRDLKAKNFREVTLLGQNVNSYRYEQNGRIIRFPDLLAAVAEAVPDMRIRFTSPHPKDMDDEAIAVMARYRNICNHIHLPAQSGSDKMLRVMKRGYTRRWYLDRVAAIRRAIPDCAISSDLFCGFHSETEEDFEATLSLMEEVRYDSAFMFKYSERPGTYAARHLADDVPEEVKLSRLDRMIALQNRLSEESNKRDIGKTFEVLIEGFSKRSREQLFGRTQQNKVVIFDKNGHRVGQYIYVRIKDASSATLFGEVVETPTSELEHHHHHH”, for which the “soluble on expression in E. coli” value is given as “soluble”.
With “MIERLFRLIKPGTRQQMVCFHHAGGSAEYFLPWKTDLPPDTALYAIQLPGHGGRINESLLHNLHQMADVIAQSYVYLPVRDTFFFGHSMGAALAFEVALRLQKAGRGITTLYVSGRLPPHKNTNTDFYRQSDVSILNKITQLGGSTLDYQQPELKDLLLPIFRADFTAIETYQRQCTELLNCSVMACVGEQDTEVSVRQMSEWCQVTKGAFRLQVFPGGHFYLNHAQKRLLAFINQSVAAQQSSKECKEYHDEI”, the “soluble on expression in E. coli” value is recorded as “not soluble”.
In the case of “MIETTAALAEACTELAKSEFITIDTEFLRETTFWPELCLVQMASPTLEVLVDPLAKGIDLTPMFELMANPNVVKVFHAARQDIEIIYHLGGLIPHPIFDTQVAAMVCGFGDSISYDQLVQKIKNVQIDKSSRFTDWSRRPLTEKQLDYALADVTHLRDVYLSLKAQLEREGRSLWLTEEMNILESRDTYDMHPDDAWLRLKSRLRKPTELAILKFVAAWREREARSRNVPRSRVLKDDGIFEIAQQQPKDAEALSRLRTIPKGWERSASGTAIIETVNAALALPKEEMPKAPRHSHAPEGSGAAVELLKVLLKLTADKHGVAAKVIANSDDLDKIASEGENATVAALTGWRRELFGDVALKLINGEVALRFAGKKVEAVEVEAAASES”, the “soluble on expression in E. coli” value is “not soluble”.
With “MIEVGDLKKGMFIIYDGEIYRVLEASKHFMGRGSGLIRTKLKNVKTGFVREVNFPSGEKVQEAELSFRKAQYLYRDGDHYYFMTLDDYEQYALSEEEIGDAKYYLVENMEVDLVFHEGTPIGIELPTTVELTVVETEPSFKGDTVSGGGKPAVLETGLKITVPYFIEVGDKIKVDTRTGEYVGRA”, the “soluble on expression in E. coli” value is listed as “soluble”.
“MIFEDKFIITTADEIPGLQLYSLGIASTISDNVDEIVENLRKQVKAKGGMGLIAFRITCADGKFLGYGTIVKADEAQFTMA”: the “soluble on expression in E. coli” value is “soluble”.

(Values after the DeepSol protein solubility set.)
